Results on 91 variants are retold here after IntAct's records for PubMed 29039417.

B1: Protein PTHB1 (Homo sapiens), Q3SYG4 (parent)
chain: MSLFKARDWWSTILGDKEEFDQGCLCLANVDNSGNGQDKIIVGSFMGYLRIFSPHPAKTGDGAQAEDLLLEVDLRDPVLQVEVGKFVSGTEMLHLAVLHSRKLCVYSVSGTLGNVEHGNQCQMKLMYEHNLQRTACNMTYGSFGGVKGRDLICIQSMDGMLMVFEQESYAFGRFLPGFLLPGPLAYSSRTDSFLTVSSCQQVESYKYQVLAFATDADKRQETEQQKLGSGKRLVVDWTLNIGEQALDICIVSFNQSASSVFVLGERNFFCLKDNGQIRFMKKLDWSPSCFLPYCSVSEGTINTLIGNHNNMLHIYQDVTLKWATQLPHIPVAVRVGCLHDLKGVIVTLSDDGHLQCSYLGTDPSLFQAPNVQSRELNYDELDVEMKELQKIIKDVNKSQGVWPMTEREDDLNVSVVVSPNFDSVSQATDVEVGTDLVPSVTVKVTLQNRVILQKAKLSVYVQPPLELTCDQFTFEFMTPDLTRTVSFSVYLKRSYTPSELEGNAVVSYSRPTDRNPDGIPRVIQCKFRLPLKLICLPGQPSKTASHKITIDTNKSPVSLLSLFPGFASQSDDDQVNVMGFHFLGGARITVLASKTSQRYRIQSEQFEDLWLITNELILRLQEYFEKQGVKDFACSFSGSIPLQEYFELIDHHFELRINGEKLEELLSERAVQFRAIQRRLLARFKDKTPAPLQHLDTLLDGTYKQVIALADAVEENQGNLFQSFTRLKSATHLVILLIALWQKLSADQVAILEAAFLPLQEDTQELGWEETVDAAISHLLKTCLSKSSKEQALNLNSQLNIPKDTSQLKKHITLLCDRLSKGGRLCLSTDAAAPQTMVMPGGCTTIPESDLEERSVEQDSTELFTNHRHLTAETPRPEVSPLQGVSE
partner: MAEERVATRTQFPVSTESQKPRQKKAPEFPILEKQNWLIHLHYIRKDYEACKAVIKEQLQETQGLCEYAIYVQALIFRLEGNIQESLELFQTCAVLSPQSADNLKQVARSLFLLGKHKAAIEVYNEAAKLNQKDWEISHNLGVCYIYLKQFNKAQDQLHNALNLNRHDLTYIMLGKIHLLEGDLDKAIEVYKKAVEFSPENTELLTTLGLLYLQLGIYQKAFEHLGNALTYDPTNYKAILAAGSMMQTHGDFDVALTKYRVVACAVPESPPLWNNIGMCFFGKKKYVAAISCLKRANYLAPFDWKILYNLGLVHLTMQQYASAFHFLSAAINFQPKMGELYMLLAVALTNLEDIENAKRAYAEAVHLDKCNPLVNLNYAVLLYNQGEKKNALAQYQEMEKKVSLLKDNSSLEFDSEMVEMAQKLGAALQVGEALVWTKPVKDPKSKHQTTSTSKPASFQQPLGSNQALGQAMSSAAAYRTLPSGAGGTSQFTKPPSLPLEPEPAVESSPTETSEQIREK

The assay covers variants of B1. The note with it: with bbs4_human BBS4, Q96RK4.
With E625K, the “effect of a mutation on the interaction” value is given as “with no effect”.

As for I534K, the “effect of a mutation on the interaction” value is listed as “with no effect”.

Regarding I534A, the “effect of a mutation on the interaction” value is “with no effect”.

As for N866A, the “effect of a mutation on the interaction” value was “with no effect”.

Regarding A831E, the “effect of a mutation on the interaction” value was “with no effect”.

As for A586K, the “effect of a mutation on the interaction” value is “with no effect”.

As to N503E, the “effect of a mutation on the interaction” value is on record as “with no effect”.

On to V459E, for which the “effect of a mutation on the interaction” value is recorded as “with no effect”.

Regarding P419K, the “effect of a mutation on the interaction” value is recorded as “with no effect”.

For Q602K, the “effect of a mutation on the interaction” value is “with no effect”.

For the variant T829E, the “effect of a mutation on the interaction” value is listed as “with no effect”.

For the variant C634A, the “effect of a mutation on the interaction” value is recorded as “with no effect”.

Take T468A: the “effect of a mutation on the interaction” value is “with no effect”.

With I707E, the “effect of a mutation on the interaction” value was “with no effect”.

Consider S494K, for which the “effect of a mutation on the interaction” value is recorded as “with no effect”.

Regarding L465K, the “effect of a mutation on the interaction” value is recorded as “disrupting interaction strength”.

As to H778A, the “effect of a mutation on the interaction” value is reported as “with no effect”.

For L481K, the “effect of a mutation on the interaction” value is given as “with no effect”.

On to S777K, for which the “effect of a mutation on the interaction” value was “with no effect”.

With D762K, the “effect of a mutation on the interaction” value is listed as “with no effect”.

Consider L536A, for which the “effect of a mutation on the interaction” value is reported as “with no effect”.

Turning to L737E, the “effect of a mutation on the interaction” value is “with no effect”.

V442E: the “effect of a mutation on the interaction” value is on record as “with no effect”.

Turning to V432K, the “effect of a mutation on the interaction” value was “with no effect”.

Regarding V838E, the “effect of a mutation on the interaction” value is given as “disrupting interaction strength”.

With S788A, the “effect of a mutation on the interaction” value was “with no effect”.

As for K492E, the “effect of a mutation on the interaction” value is “with no effect”.

With L436A, the “effect of a mutation on the interaction” value is on record as “with no effect”.

With L681A, the “effect of a mutation on the interaction” value is on record as “with no effect”.

K743E: the “effect of a mutation on the interaction” value is on record as “with no effect”.

With L827K, the “effect of a mutation on the interaction” value was “with no effect”.

In the case of V629E, the “effect of a mutation on the interaction” value is “with no effect”.

On to N515C, for which the “effect of a mutation on the interaction” value is “disrupting interaction strength”.

Turning to L533K, the “effect of a mutation on the interaction” value is “with no effect”.

On to S596E, for which the “effect of a mutation on the interaction” value is reported as “with no effect”.

For the variant L733K, the “effect of a mutation on the interaction” value is recorded as “with no effect”.

Consider L692A, for which the “effect of a mutation on the interaction” value is reported as “disrupting interaction strength”.

In the case of C843E, the “effect of a mutation on the interaction” value was “with no effect”.

On to I523E, for which the “effect of a mutation on the interaction” value was “with no effect”.

For the variant S855E, the “effect of a mutation on the interaction” value is given as “with no effect”.

Turning to S561A, the “effect of a mutation on the interaction” value is “with no effect”.

For E853K, the “effect of a mutation on the interaction” value is listed as “with no effect”.

On to V461E, for which the “effect of a mutation on the interaction” value is reported as “with no effect”.

For the variant T552A, the “effect of a mutation on the interaction” value is “with no effect”.

Turning to S570K, the “effect of a mutation on the interaction” value was “with no effect”.

On to D429K, for which the “effect of a mutation on the interaction” value is reported as “with no effect”.

For F864K, the “effect of a mutation on the interaction” value is on record as “with no effect”.

F487A: the “effect of a mutation on the interaction” value is recorded as “with no effect”.

Regarding V879E, the “effect of a mutation on the interaction” value is given as “with no effect”.

On to D711K, for which the “effect of a mutation on the interaction” value was “with no effect”.

As to I451A, the “effect of a mutation on the interaction” value is “with no effect”.

For V885K, the “effect of a mutation on the interaction” value was “with no effect”.

Turning to A592K, the “effect of a mutation on the interaction” value is “with no effect”.

For G579K, the “effect of a mutation on the interaction” value was “with no effect”.

As to D422K, the “effect of a mutation on the interaction” value is given as “with no effect”.

In the case of K786A, the “effect of a mutation on the interaction” value was “with no effect”.

Turning to D700A, the “effect of a mutation on the interaction” value is listed as “with no effect”.

I657K: the “effect of a mutation on the interaction” value is on record as “with no effect”.

Turning to D513E, the “effect of a mutation on the interaction” value is on record as “with no effect”.

Regarding H546A, the “effect of a mutation on the interaction” value was “with no effect”.

Take G822E: the “effect of a mutation on the interaction” value was “with no effect”.

N716A: the “effect of a mutation on the interaction” value is reported as “with no effect”.

As to V444I, the “effect of a mutation on the interaction” value was “disrupting interaction strength”.

As for V575A, the “effect of a mutation on the interaction” value is listed as “with no effect”.

For F756K, the “effect of a mutation on the interaction” value was “with no effect”.

F756E: the “effect of a mutation on the interaction” value is recorded as “with no effect”.

Consider Q858A, for which the “effect of a mutation on the interaction” value is on record as “with no effect”.

Regarding A712K, the “effect of a mutation on the interaction” value is listed as “with no effect”.

For the variant R587E, the “effect of a mutation on the interaction” value is listed as “with no effect”.

As to L665E, the “effect of a mutation on the interaction” value is “with no effect”.

On to F632E, for which the “effect of a mutation on the interaction” value was “with no effect”.

Take T478K: the “effect of a mutation on the interaction” value is reported as “with no effect”.

For the variant S828E, the “effect of a mutation on the interaction” value is given as “with no effect”.

Take L759A: the “effect of a mutation on the interaction” value is on record as “with no effect”.

Take K454A: the “effect of a mutation on the interaction” value is “with no effect”.

As to S558E, the “effect of a mutation on the interaction” value is reported as “with no effect”.

For L559K, the “effect of a mutation on the interaction” value is “with no effect”.

For T874E, the “effect of a mutation on the interaction” value is listed as “with no effect”.

Take P877E: the “effect of a mutation on the interaction” value is “with no effect”.

As for L500E, the “effect of a mutation on the interaction” value is listed as “with no effect”.

In the case of E790K, the “effect of a mutation on the interaction” value was “with no effect”.

For L452A, the “effect of a mutation on the interaction” value is “with no effect”.

For T702E, the “effect of a mutation on the interaction” value is “with no effect”.

Consider T589I, for which the “effect of a mutation on the interaction” value is “disrupting interaction strength”.

For the variant V416K, the “effect of a mutation on the interaction” value is reported as “with no effect”.

Consider S729E, for which the “effect of a mutation on the interaction” value is given as “with no effect”.

For the variant S729K, the “effect of a mutation on the interaction” value is “with no effect”.

Take L591A: the “effect of a mutation on the interaction” value is listed as “with no effect”.

Regarding S797E, the “effect of a mutation on the interaction” value is on record as “with no effect”.

Turning to E660A, the “effect of a mutation on the interaction” value is given as “with no effect”.

Consider R818E, for which the “effect of a mutation on the interaction” value is on record as “with no effect”.
